Tests used:
6X His-PYR1 I84Q = molecular target: T1, 6X His-PYR1 I84Q
T1 chain: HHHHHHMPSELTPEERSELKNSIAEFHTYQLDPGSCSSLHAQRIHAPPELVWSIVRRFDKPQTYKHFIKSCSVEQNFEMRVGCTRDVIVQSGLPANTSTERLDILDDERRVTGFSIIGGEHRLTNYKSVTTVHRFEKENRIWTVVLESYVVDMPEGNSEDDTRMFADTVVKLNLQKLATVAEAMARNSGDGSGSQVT

6X His-PYR1 M158I = molecular target: T2, 6X His-PYR1 M158I
T2 chain: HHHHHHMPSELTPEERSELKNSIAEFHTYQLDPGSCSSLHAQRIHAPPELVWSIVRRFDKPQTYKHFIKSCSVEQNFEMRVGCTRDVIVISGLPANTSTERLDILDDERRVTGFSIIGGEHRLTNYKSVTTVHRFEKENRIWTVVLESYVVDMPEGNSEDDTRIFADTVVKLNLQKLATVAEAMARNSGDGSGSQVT

6X His-PYR1 V83F = molecular target: T3, 6X His-PYR1 V83F
T3 chain: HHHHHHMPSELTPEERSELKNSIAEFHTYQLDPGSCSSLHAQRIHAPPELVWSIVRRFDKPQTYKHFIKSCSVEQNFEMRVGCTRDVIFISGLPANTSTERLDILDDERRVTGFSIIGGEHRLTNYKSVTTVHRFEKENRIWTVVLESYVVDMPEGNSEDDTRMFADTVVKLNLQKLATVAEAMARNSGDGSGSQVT

[1] = molecular target: T4, PYL2^CA4C (H65P, A93W, M164I, F165V), 6xHis fusion
T4 chain: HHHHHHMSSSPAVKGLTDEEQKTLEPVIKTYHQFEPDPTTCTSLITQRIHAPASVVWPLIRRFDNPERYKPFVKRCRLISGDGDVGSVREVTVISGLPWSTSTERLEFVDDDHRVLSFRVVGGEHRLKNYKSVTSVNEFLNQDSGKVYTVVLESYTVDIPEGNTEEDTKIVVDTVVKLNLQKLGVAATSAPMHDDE

[2] = molecular target: T5, PYR1^CA4C (H60P, A89W, M158I, F159V), 6xHis fusion
T5 chain: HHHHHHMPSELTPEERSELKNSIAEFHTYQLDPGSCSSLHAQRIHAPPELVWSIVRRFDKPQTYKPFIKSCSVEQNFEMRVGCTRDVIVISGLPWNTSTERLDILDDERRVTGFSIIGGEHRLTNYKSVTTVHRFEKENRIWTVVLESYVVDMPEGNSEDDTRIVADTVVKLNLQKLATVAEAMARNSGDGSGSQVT

[3] = molecular target: T6, PYL9^CA4C (A91W, Y160I, F161V), 6xHis fusion
T6 chain: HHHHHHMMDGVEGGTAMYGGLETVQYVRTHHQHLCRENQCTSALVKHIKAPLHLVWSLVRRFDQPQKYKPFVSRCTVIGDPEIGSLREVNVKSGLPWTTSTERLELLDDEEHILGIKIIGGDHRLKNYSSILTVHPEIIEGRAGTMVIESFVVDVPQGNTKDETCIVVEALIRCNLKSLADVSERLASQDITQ

[4] = molecular target: T7, PYR1^CA3 (H60P, V83F, F159V), 6xHis fusion
T7 chain: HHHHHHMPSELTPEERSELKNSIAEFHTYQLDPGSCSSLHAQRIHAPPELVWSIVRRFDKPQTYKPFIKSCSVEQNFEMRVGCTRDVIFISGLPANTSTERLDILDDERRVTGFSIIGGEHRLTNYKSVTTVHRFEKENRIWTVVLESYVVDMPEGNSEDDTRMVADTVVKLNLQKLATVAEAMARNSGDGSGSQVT

6X His-PYR1 H60P = molecular target: T8, 6X His-PYR1 H60P
T8 chain: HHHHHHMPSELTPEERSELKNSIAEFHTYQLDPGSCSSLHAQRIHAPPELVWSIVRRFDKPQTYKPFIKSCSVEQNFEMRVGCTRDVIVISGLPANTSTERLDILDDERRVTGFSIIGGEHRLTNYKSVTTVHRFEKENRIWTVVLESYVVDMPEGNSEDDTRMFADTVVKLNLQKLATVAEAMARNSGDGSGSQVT

[5] = molecular target: T9, PYR1^CA4B (V83F, M158I, F159V, K170W), 6xHis fusion
T9 chain: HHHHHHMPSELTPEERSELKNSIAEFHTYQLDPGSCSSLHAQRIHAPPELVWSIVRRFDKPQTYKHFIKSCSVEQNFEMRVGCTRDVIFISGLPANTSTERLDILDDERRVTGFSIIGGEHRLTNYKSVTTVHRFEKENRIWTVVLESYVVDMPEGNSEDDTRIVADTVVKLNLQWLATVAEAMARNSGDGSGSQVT

6x-His-PYL10, wild type = molecular target: T10, 6x-His-PYL10, wild type
T10 chain: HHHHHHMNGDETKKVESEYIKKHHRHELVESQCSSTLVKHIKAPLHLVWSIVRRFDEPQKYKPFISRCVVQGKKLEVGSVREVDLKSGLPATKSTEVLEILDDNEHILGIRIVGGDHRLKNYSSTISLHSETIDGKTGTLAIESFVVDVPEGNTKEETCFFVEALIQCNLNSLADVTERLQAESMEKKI

6x-His-PYL6, wild type = molecular target: T11, 6x-His-PYL6, wild type
T11 chain: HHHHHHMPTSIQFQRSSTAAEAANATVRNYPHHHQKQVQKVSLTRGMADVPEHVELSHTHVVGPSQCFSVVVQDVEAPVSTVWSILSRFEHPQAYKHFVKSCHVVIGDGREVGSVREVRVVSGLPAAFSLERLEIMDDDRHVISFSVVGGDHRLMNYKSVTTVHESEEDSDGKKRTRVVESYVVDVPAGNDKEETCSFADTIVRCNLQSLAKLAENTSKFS

6X His-PYR1 A89W = molecular target: T12, 6X His-PYR1 A89W
T12 chain: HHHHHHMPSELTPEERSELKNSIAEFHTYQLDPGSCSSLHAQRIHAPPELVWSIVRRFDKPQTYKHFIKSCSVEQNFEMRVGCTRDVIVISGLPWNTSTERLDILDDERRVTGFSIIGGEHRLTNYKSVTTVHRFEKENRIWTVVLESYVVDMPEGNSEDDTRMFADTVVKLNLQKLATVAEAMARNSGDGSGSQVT

6X His-PYR1 F159V = molecular target: T13, 6X His-PYR1 F159V
T13 chain: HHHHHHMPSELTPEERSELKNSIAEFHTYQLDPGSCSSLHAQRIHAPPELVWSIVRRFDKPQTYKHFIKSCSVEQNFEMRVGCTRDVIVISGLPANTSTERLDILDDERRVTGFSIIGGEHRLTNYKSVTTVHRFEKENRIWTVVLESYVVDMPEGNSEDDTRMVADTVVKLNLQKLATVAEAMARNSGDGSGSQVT

6X His-PYR1 K170W = molecular target: T14, 6X His-PYR1 K170W
T14 chain: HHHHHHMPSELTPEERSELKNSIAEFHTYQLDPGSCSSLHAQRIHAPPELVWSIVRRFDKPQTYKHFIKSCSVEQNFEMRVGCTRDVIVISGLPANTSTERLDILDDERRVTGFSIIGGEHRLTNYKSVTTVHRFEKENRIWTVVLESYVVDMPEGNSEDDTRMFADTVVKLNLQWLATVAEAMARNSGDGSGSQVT

6X His-PYR1 T162F = molecular target: T15, 6X His-PYR1 T162F
T15 chain: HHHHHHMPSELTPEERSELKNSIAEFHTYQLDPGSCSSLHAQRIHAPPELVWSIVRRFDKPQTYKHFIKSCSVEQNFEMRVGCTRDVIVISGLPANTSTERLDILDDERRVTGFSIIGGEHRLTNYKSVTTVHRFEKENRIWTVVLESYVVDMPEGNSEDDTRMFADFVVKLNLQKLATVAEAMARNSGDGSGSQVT

[6] = molecular target: T16, PYR1^CA4 (H60P, V83F, F159V, M158I), 6xHis fusion
T16 chain: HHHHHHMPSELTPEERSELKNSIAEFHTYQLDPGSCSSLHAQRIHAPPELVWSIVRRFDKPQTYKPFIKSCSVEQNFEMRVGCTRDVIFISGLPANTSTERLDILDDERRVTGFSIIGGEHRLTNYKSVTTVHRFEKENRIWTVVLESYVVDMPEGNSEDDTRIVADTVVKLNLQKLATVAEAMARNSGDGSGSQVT

B1: GST-HAB1 (protein)
chain: SPVEITQLKNVTDAADLLSDSENQSFCNGGTECTMEDVSELEEVGEQDLLKTLSDTRSGSSNVFDEDDVLSVVEDNSAVISEGLLVVDAGSELSLSNTAMEIDNGRVLATAIIVGESSIEQVPTAEVLIAGVNQDTNTSEVVIRLPDENSNHLVKGRSVYELDCIPLWGTVSIQGNRSEMEDAFAVSPHFLKLPIKMLMGDHEGMSPSLTHLTGHFFGVYDGHGGHKVADYCRDRLHFALAEEIERIKDELCKRNTGEGRQVQWDKVFTSCFLTVDGEIEGKIGRAVVGSSDKVLEAVASETVGSTAVVALVCSSHIVVSNCGDSRAVLFRGKEAMPLSVDHKPDREDEYARIENAGGKVIQWQGARVFGVLAMSRSIGDRYLKPYVIPEPEVTFMPRSREDECLILASDGLWDVMNNQEVCEIARRRILMWHKKNGAPPLAERGKGIDPACQAAADYLSMLALQKGSKDNISIIVIDLKAQRKFKTRT
HAB1 phosphatase (PP2C) activity, % of control, pNPP hydrolysis, in the absence of ABA (6X His-PYR1 I84Q): each of the activating mutants increased basal receptor activity in comparison to wild-type PYR1 | HAB1 phosphatase (PP2C) activity, % of control, pNPP hydrolysis, in the absence of ABA (6X His-PYR1 M158I): each of the activating mutants increased basal receptor activity in comparison to wild-type PYR1 | HAB1 phosphatase (PP2C) activity, % of control, pNPP hydrolysis, in the absence of ABA (6X His-PYR1 V83F): each of the activating mutants increased basal receptor activity in comparison to wild-type PYR1 | PP2C activity, % of control, pNPP hydrolysis, in the absence of ABA [1]: the mutant proteins were highly activated in the absence of ABA in comparison to wild-type PYL2 or PYL9 | PP2C activity, % of control, pNPP hydrolysis, in the absence of ABA [2]: both the PYR1^CA4B and PYR1^CAc mutants dramatically increased basal PYR1 activity relative to wild-type PYR1 | PP2C activity, % of control, pNPP hydrolysis, in the absence of ABA [3]: the mutant proteins were highly activated in the absence of ABA in comparison to wild-type PYL2 or PYL9 | PP2C activity, % of control, pNPP hydrolysis, in the absence of ABA [4]: both the triple and quadruple mutants dramatically increased basal PYR1 activity relative to wild-type PYR1 | HAB1 phosphatase (PP2C) activity, % of control, pNPP hydrolysis, in the absence of ABA (6X His-PYR1 H60P): each of the activating mutants increased basal receptor activity in comparison to wild-type PYR1 | PP2C activity, % of control, pNPP hydrolysis, in the absence of ABA [5]: both the PYR1^CA4B and PYR1^CAc mutants dramatically increased basal PYR1 activity relative to wild-type PYR1 | PP2C activity, % of control, pNPP hydrolysis, with 0 or 10 µM ABA (6x-His-PYL10, wild type): PYL6 and PYL10, which have high basal activities ..., are not full CA receptors | PP2C activity, % of control, pNPP hydrolysis, with 0 or 10 µM ABA (6x-His-PYL6, wild type): PYL6 and PYL10, which have high basal activities ..., are not full CA receptors | HAB1 phosphatase (PP2C) activity, % of control, pNPP hydrolysis, in the absence of ABA (6X His-PYR1 A89W): each of the activating mutants increased basal receptor activity in comparison to wild-type PYR1 | HAB1 phosphatase (PP2C) activity, % of control, pNPP hydrolysis, in the absence of ABA (6X His-PYR1 F159V): each of the activating mutants increased basal receptor activity in comparison to wild-type PYR1 | HAB1 phosphatase (PP2C) activity, % of control, pNPP hydrolysis, in the absence of ABA (6X His-PYR1 K170W): each of the activating mutants increased basal receptor activity in comparison to wild-type PYR1 | HAB1 phosphatase (PP2C) activity, % of control, pNPP hydrolysis, in the absence of ABA (6X His-PYR1 T162F): each of the activating mutants increased basal receptor activity in comparison to wild-type PYR1 | PP2C activity, % of control, pNPP hydrolysis, in the absence of ABA [6]: both the triple and quadruple mutants dramatically increased basal PYR1 activity relative to wild-type PYR1
